Data: PMC10786891, “Massively parallel profiling of RNA-targeting CRISPR-Cas13d”

Target: T1, EsCas13d, nuclease-dead (Eubacterium siraeum, UniProt B0MS50, R295A;H300A;R849A;H854A)
T1 sequence: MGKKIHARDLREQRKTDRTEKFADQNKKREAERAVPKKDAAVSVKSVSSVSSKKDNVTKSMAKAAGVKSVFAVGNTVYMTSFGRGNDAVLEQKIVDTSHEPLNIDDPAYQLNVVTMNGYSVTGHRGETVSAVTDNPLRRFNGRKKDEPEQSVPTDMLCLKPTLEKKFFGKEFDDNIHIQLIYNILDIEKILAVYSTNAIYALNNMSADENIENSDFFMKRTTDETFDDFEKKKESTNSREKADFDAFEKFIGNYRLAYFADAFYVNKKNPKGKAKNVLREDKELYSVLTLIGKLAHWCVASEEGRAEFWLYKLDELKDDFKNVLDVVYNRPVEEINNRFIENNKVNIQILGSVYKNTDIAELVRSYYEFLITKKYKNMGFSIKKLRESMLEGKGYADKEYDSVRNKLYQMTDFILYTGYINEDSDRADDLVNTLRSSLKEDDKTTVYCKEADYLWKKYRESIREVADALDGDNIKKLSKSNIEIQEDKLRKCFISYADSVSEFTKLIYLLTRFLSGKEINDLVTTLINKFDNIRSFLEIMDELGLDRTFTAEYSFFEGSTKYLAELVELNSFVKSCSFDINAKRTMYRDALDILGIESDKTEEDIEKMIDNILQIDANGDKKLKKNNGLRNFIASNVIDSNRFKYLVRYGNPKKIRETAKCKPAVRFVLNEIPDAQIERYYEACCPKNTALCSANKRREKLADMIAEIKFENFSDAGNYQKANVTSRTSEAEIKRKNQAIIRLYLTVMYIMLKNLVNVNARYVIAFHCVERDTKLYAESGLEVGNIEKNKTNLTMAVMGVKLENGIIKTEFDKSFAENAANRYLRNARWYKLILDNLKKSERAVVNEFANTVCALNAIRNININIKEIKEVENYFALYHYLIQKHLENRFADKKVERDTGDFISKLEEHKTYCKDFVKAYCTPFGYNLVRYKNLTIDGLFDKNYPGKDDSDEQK
Test: crRNA (strand 1, pre-loaded); Mg2+; 40 mM Tris-HCl pH 7.5, 150 mM NaCl, 6 mM MgCl2, 1 mM DTT, 0.1% Tween-20, 0.2 mg/ml BSA; 25 C; 10 min per concentration, then washed
Details: tags: His6-TwinStrep-SUMO cleaved; N-terminal SNAP kept (SNAP-Surface 488); label: 3' end held by stalled T7 RNA polymerase

| Binder | Kd |
| --- | --- |
| target 1 insU 3' of 15,insA 3' of 8 (mixed) RNA 1: CACCCGUGCAAAAAUGCAGGGGUCUAAAACUGAGCGGAUAACCUCUCUAUGG RNA 2: GGGAAUGGAUCCACAUCUACGAAUUCGUACCAUAGAGUAGGUUAUACCGCUCACCGAGAUCGGAAGAGCACACGU | 16.8 ± 2 nM |
| target 1 C6G,G15C (mixed) RNA 1: CACCCGUGCAAAAAUGCAGGGGUCUAAAACUGAGCGGAUAACCUCUCUAUGG RNA 2: GGGAAUGGAUCCACAUCUACGAAUUCGUACCAUAGACAGGUUAUCGGCUCACCGAGAUCGGAAGAGCACACGU | 47 ± 10 nM |
| target 2 MT 5'PFS ACA 3'PFS CUU (mixed) RNA 1: CACCCGUGCAAAAUUGCAGGGGUCUAAAACCUUCUCCAAAUUGUUUCAUCCU RNA 2: GGGAAUGGAUCCACAUCUACGAAUUCACAAGGAUGAAACAAUUUGGAGAAGCUUAGAUCGGAAGAGCACACGU | 12 ± 4 nM |
| target 2 MT 5'PFS AAG 3'PFS CGG (mixed) RNA 1: CACCCGUGCAAAAUUGCAGGGGUCUAAAACCUUCUCCAAAUUGUUUCAUCCU RNA 2: GGGAAUGGAUCCACAUCUACGAAUUCAAGAGGAUGAAACAAUUUGGAGAAGCGGAGAUCGGAAGAGCACACGU | 3.4 ± 0.5 nM |
| target 2 MT 5'PFS UAU 3'PFS ACU (mixed) RNA 1: CACCCGUGCAAAAUUGCAGGGGUCUAAAACCUUCUCCAAAUUGUUUCAUCCU RNA 2: GGGAAUGGAUCCACAUCUACGAAUUCUAUAGGAUGAAACAAUUUGGAGAAGACUAGAUCGGAAGAGCACACGU | 76 ± 25 nM |
| target 2 MT 5'PFS AAG 3'PFS AGG (mixed) RNA 1: CACCCGUGCAAAAUUGCAGGGGUCUAAAACCUUCUCCAAAUUGUUUCAUCCU RNA 2: GGGAAUGGAUCCACAUCUACGAAUUCAAGAGGAUGAAACAAUUUGGAGAAGAGGAGAUCGGAAGAGCACACGU | 5.7 ± 1 nM |
| target 2 MT 5'PFS CGA 3'PFS AAA (mixed) RNA 1: CACCCGUGCAAAAUUGCAGGGGUCUAAAACCUUCUCCAAAUUGUUUCAUCCU RNA 2: GGGAAUGGAUCCACAUCUACGAAUUCCGAAGGAUGAAACAAUUUGGAGAAGAAAAGAUCGGAAGAGCACACGU | 13 ± 5 nM |
| target 2 MT 5'PFS AUA 3'PFS CAU (mixed) RNA 1: CACCCGUGCAAAAUUGCAGGGGUCUAAAACCUUCUCCAAAUUGUUUCAUCCU RNA 2: GGGAAUGGAUCCACAUCUACGAAUUCAUAAGGAUGAAACAAUUUGGAGAAGCAUAGAUCGGAAGAGCACACGU | 4.6 ± 0.8 nM |
| target 2 MT 5'PFS GCC 3'PFS ACA (mixed) RNA 1: CACCCGUGCAAAAUUGCAGGGGUCUAAAACCUUCUCCAAAUUGUUUCAUCCU RNA 2: GGGAAUGGAUCCACAUCUACGAAUUCGCCAGGAUGAAACAAUUUGGAGAAGACAAGAUCGGAAGAGCACACGU | 10.8 ± 1.1 nM |
| target 2 MT 5'PFS GCU 3'PFS CGC (mixed) RNA 1: CACCCGUGCAAAAUUGCAGGGGUCUAAAACCUUCUCCAAAUUGUUUCAUCCU RNA 2: GGGAAUGGAUCCACAUCUACGAAUUCGCUAGGAUGAAACAAUUUGGAGAAGCGCAGAUCGGAAGAGCACACGU | 12.1 ± 1.3 nM |
| target 2 MT 5'PFS AAG 3'PFS CGC (mixed) RNA 1: CACCCGUGCAAAAUUGCAGGGGUCUAAAACCUUCUCCAAAUUGUUUCAUCCU RNA 2: GGGAAUGGAUCCACAUCUACGAAUUCAAGAGGAUGAAACAAUUUGGAGAAGCGCAGAUCGGAAGAGCACACGU | 3.34 ± 0.31 nM |
| target 2 MT 5'PFS AAG 3'PFS CGA (mixed) RNA 1: CACCCGUGCAAAAUUGCAGGGGUCUAAAACCUUCUCCAAAUUGUUUCAUCCU RNA 2: GGGAAUGGAUCCACAUCUACGAAUUCAAGAGGAUGAAACAAUUUGGAGAAGCGAAGAUCGGAAGAGCACACGU | 4.5 ± 0.5 nM |
| target 2 MT 5'PFS AUA 3'PFS CAA (mixed) RNA 1: CACCCGUGCAAAAUUGCAGGGGUCUAAAACCUUCUCCAAAUUGUUUCAUCCU RNA 2: GGGAAUGGAUCCACAUCUACGAAUUCAUAAGGAUGAAACAAUUUGGAGAAGCAAAGAUCGGAAGAGCACACGU | 4.6 ± 1.3 nM |
| target 2 MT 5'PFS AUG 3'PFS UGU (mixed) RNA 1: CACCCGUGCAAAAUUGCAGGGGUCUAAAACCUUCUCCAAAUUGUUUCAUCCU RNA 2: GGGAAUGGAUCCACAUCUACGAAUUCAUGAGGAUGAAACAAUUUGGAGAAGUGUAGAUCGGAAGAGCACACGU | 21 ± 2.6 nM |
| target 2 MT 5'PFS CGA 3'PFS AAC (mixed) RNA 1: CACCCGUGCAAAAUUGCAGGGGUCUAAAACCUUCUCCAAAUUGUUUCAUCCU RNA 2: GGGAAUGGAUCCACAUCUACGAAUUCCGAAGGAUGAAACAAUUUGGAGAAGAACAGAUCGGAAGAGCACACGU | 7.5 ± 1.1 nM |
| target 2 MT 5'PFS AUA 3'PFS CAC (mixed) RNA 1: CACCCGUGCAAAAUUGCAGGGGUCUAAAACCUUCUCCAAAUUGUUUCAUCCU RNA 2: GGGAAUGGAUCCACAUCUACGAAUUCAUAAGGAUGAAACAAUUUGGAGAAGCACAGAUCGGAAGAGCACACGU | 5.4 ± 1.1 nM |
| target 2 MT 5'PFS ACC 3'PFS ACA (mixed) RNA 1: CACCCGUGCAAAAUUGCAGGGGUCUAAAACCUUCUCCAAAUUGUUUCAUCCU RNA 2: GGGAAUGGAUCCACAUCUACGAAUUCACCAGGAUGAAACAAUUUGGAGAAGACAAGAUCGGAAGAGCACACGU | 8 ± 4 nM |
| target 2 MT 5'PFS AAG 3'PFS AGC (mixed) RNA 1: CACCCGUGCAAAAUUGCAGGGGUCUAAAACCUUCUCCAAAUUGUUUCAUCCU RNA 2: GGGAAUGGAUCCACAUCUACGAAUUCAAGAGGAUGAAACAAUUUGGAGAAGAGCAGAUCGGAAGAGCACACGU | 3.7 ± 0.4 nM |
| target 2 MT 5'PFS UGG 3'PFS UAC (mixed) RNA 1: CACCCGUGCAAAAUUGCAGGGGUCUAAAACCUUCUCCAAAUUGUUUCAUCCU RNA 2: GGGAAUGGAUCCACAUCUACGAAUUCUGGAGGAUGAAACAAUUUGGAGAAGUACAGAUCGGAAGAGCACACGU | 8.6 ± 0.9 nM |
| target 2 MT 5'PFS GGG 3'PFS AUA (mixed) RNA 1: CACCCGUGCAAAAUUGCAGGGGUCUAAAACCUUCUCCAAAUUGUUUCAUCCU RNA 2: GGGAAUGGAUCCACAUCUACGAAUUCGGGAGGAUGAAACAAUUUGGAGAAGAUAAGAUCGGAAGAGCACACGU | 7.1 ± 0.5 nM |
| target 2 MT 5'PFS GGG 3'PFS AUC (mixed) RNA 1: CACCCGUGCAAAAUUGCAGGGGUCUAAAACCUUCUCCAAAUUGUUUCAUCCU RNA 2: GGGAAUGGAUCCACAUCUACGAAUUCGGGAGGAUGAAACAAUUUGGAGAAGAUCAGAUCGGAAGAGCACACGU | 8.5 ± 0.8 nM |
| target 2 MT 5'PFS UAU 3'PFS ACG (mixed) RNA 1: CACCCGUGCAAAAUUGCAGGGGUCUAAAACCUUCUCCAAAUUGUUUCAUCCU RNA 2: GGGAAUGGAUCCACAUCUACGAAUUCUAUAGGAUGAAACAAUUUGGAGAAGACGAGAUCGGAAGAGCACACGU | 58 ± 6 nM |
| target 2 MT 5'PFS AUA 3'PFS CAG (mixed) RNA 1: CACCCGUGCAAAAUUGCAGGGGUCUAAAACCUUCUCCAAAUUGUUUCAUCCU RNA 2: GGGAAUGGAUCCACAUCUACGAAUUCAUAAGGAUGAAACAAUUUGGAGAAGCAGAGAUCGGAAGAGCACACGU | 8.4 ± 2.6 nM |
| target 2 MT 5'PFS GCC 3'PFS ACU (mixed) RNA 1: CACCCGUGCAAAAUUGCAGGGGUCUAAAACCUUCUCCAAAUUGUUUCAUCCU RNA 2: GGGAAUGGAUCCACAUCUACGAAUUCGCCAGGAUGAAACAAUUUGGAGAAGACUAGAUCGGAAGAGCACACGU | 12.9 ± 1.9 nM |
| target 2 MT 5'PFS GUC 3'PFS AGU (mixed) RNA 1: CACCCGUGCAAAAUUGCAGGGGUCUAAAACCUUCUCCAAAUUGUUUCAUCCU RNA 2: GGGAAUGGAUCCACAUCUACGAAUUCGUCAGGAUGAAACAAUUUGGAGAAGAGUAGAUCGGAAGAGCACACGU | 16.5 ± 2.6 nM |
| target 2 MT 5'PFS GGG 3'PFS AUG (mixed) RNA 1: CACCCGUGCAAAAUUGCAGGGGUCUAAAACCUUCUCCAAAUUGUUUCAUCCU RNA 2: GGGAAUGGAUCCACAUCUACGAAUUCGGGAGGAUGAAACAAUUUGGAGAAGAUGAGAUCGGAAGAGCACACGU | 9.2 ± 0.6 nM |
| target 2 MT 5'PFS AAG 3'PFS AGA (mixed) RNA 1: CACCCGUGCAAAAUUGCAGGGGUCUAAAACCUUCUCCAAAUUGUUUCAUCCU RNA 2: GGGAAUGGAUCCACAUCUACGAAUUCAAGAGGAUGAAACAAUUUGGAGAAGAGAAGAUCGGAAGAGCACACGU | 2.5 ± 0.28 nM |
| target 2 MT 5'PFS GCC 3'PFS ACG (mixed) RNA 1: CACCCGUGCAAAAUUGCAGGGGUCUAAAACCUUCUCCAAAUUGUUUCAUCCU RNA 2: GGGAAUGGAUCCACAUCUACGAAUUCGCCAGGAUGAAACAAUUUGGAGAAGACGAGAUCGGAAGAGCACACGU | 12.2 ± 1.4 nM |
